Experiment [1] concerns the target Aβ42 fibrils (human) (UniProt P05067). Kind of experiment: SPR; Aβ42 fibrils immobilized; BRICHOS at 0.391-12.5 μM; global heterogeneous ligand model with two binding sites; apparent constants. In general terms: SPR reads the build-up and loss of mass on a sensor chip optically.
For experiment [2], the target named is amyloid-beta fibrils (Homo sapiens) (UniProt P05067). As to the kind of experiment: SPR. Conditions: cited from earlier work.
For experiment [3], the target named is soluble Aβ42 aggregates of different sizes (human) (UniProt P05067). As to the kind of experiment: FCCS; time course of aggregation of 5, 10 or 20 μM unlabeled Aβ42 with 100 nM HiLyteFluor488-Aβ42 and 483 nM proSP-C BRICHOS T187R (100 nM labeled with Atto655); auto- and cross-correlation curves analysed by MEMFCS and a two-component 3D diffusion model.
Chain of soluble Aβ42 aggregates of different sizes (human) (P05067 671-713): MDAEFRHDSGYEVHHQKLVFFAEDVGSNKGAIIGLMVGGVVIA

One may read the Kd as the concentration at which binding is half-saturated. One may read the stoichiometry N as a count of units in the complex or per binding partner.

Chain of Aβ42 fibrils (human) (P05067 671-713): as above
Chain of proSP-C BRICHOS WT (P11686 59-197): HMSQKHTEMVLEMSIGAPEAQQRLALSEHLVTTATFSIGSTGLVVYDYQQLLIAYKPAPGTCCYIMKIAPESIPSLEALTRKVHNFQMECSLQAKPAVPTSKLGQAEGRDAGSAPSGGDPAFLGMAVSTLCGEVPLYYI
Chain of proSP-C BRICHOS BRICHOS (P11686 91-197): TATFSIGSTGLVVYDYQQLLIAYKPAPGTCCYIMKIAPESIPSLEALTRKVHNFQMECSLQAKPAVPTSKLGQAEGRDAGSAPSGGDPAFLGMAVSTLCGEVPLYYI
Chain of amyloid-beta fibrils (Homo sapiens) (P05067 672-713): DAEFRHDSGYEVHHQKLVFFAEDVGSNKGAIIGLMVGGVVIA

Turning to “proSP-C BRICHOS T187R (from UniProt P11686 59-197) (domain or fragment)”, in experiment [1], the KD2 (binding site 2, apparent) is 25 nM; the ka2 (binding site 2) worked out at 6800 M^–1 s^–1; the kd2 (binding site 2) came to 0.00017 s^–1.
Consider “proSP-C BRICHOS BRICHOS (from UniProt P11686)”, for which the Kd in experiment [2] was 40 nM.
“proSP-C BRICHOS WT (from UniProt P11686 59-197) (domain or fragment)”: in experiment [1], the KD2 (binding site 2, apparent) is 130 nM; the ka2 (binding site 2) amounted to 1770 M^–1 s^–1; the kd2 (binding site 2) is 0.00023 s^–1.
Regarding “proSP-C BRICHOS T187R-Atto655 (from UniProt P11686 59-197) (domain or fragment)”, the stoichiometry N in experiment [3] was below 10.
